Data from PMC9688426, “Comparison of Optical and Electrical Sensor Characteristics for Efficient Analysis of Attachment and Detachment of Aptamer”.

Target: thrombin (bovine, UniProt P00735;P00735 318-366;367-625)
Experiment: graphene oxide FET resistance change; TBA adsorbed on graphene oxide; thrombin detected down to 250 pM within 5 min (detection limit, not Kd); Assay buffer and temperature not given in the material (reagents list PBS pH 7.4 and Trizma base); sections 3.2.1-3.2.3 have no text. GOx, trypsin, lysozyme, ficin and goat anti-mouse IgG were purchased, but no result for them is in the material
Settings: protein: commercial; copies: 1;1

GGTTGGTGTGGTTGG (ssDNA) [TBA]: binds.
